Measurements as given in the supplement of paper PMC9112550, “Optimization of the antimicrobial peptide Bac7 by deep mutational scanning” (BMC Biology, 2022).

System: Escherichia coli TOP10
Test: shrunken log2 fold change of peptide-encoding DNA abundance (4.5 h post-induction vs induction); higher = less antimicrobial activity (less host growth inhibition)
Conditions: time post-induction: 4.5 h; library: site-saturation at positions 5, 18, 19, 20
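Also: peptides expressed intracellularly from a pBAD plasmid library in pooled LB shake-flask culture, induced with 0.3% L-arabinose, DNA abundance read by NGS, three biological replicates, DESeq2 with apeglm shrinkage.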

Row | Sequence | shrunken log2 fold change
1 | RRIRGRPPRLPRPRPRPQRSPRP | 0.16
2 | RRIRGRPPRLPRPRPRPQVVPRP | 0.0944
3 | RRIRGRPPRLPRPRPRPQWDPRP | 0.534
4 | RRIRGRPPRLPRPRPRPQWPPRP | 0.475
5 | RRIRGRPPRLPRPRPRPQWTPRP | 0.319
6 | RRIRGRPPRLPRPRPRPQYDPRP | 0.101
7 | RRIRGRPPRLPRPRPRPQYFPRP | -0.141
8 | RRIRGRPPRLPRPRPRPQYMPRP | -0.195
9 | RRIRGRPPRLPRPRPRPQYNPRP | -0.0557
10 | RRIRGRPPRLPRPRPRPQYRPRP | 0.0878
11 | RRIRGRPPRLPRPRPRPRACPRP | 0.847
12 | RRIRGRPPRLPRPRPRPRAMPRP | 0.787
13 | RRIRGRPPRLPRPRPRPRAWPRP | 1.31
14 | RRIRGRPPRLPRPRPRPRDDPRP | 0.536
15 | RRIRGRPPRLPRPRPRPRDTPRP | 0.649
16 | RRIRGRPPRLPRPRPRPRELPRP | 1.31
17 | RRIRGRPPRLPRPRPRPRFWPRP | 0.943
18 | RRIRGRPPRLPRPRPRPRGGPRP | 1.05
19 | RRIRGRPPRLPRPRPRPRHEPRP | 0.604
20 | RRIRGRPPRLPRPRPRPRHTPRP | 0.7
21 | RRIRGRPPRLPRPRPRPRICPRP | 0.335
22 | RRIRGRPPRLPRPRPRPRIMPRP | 0.506

Row | Sequence | shrunken log2 fold change
23 | RRIRGRPPRLPRPRPRPRLRPRP | 0.87
24 | RRIRGRPPRLPRPRPRPRMFPRP | 0.837
25 | RRIRGRPPRLPRPRPRPRMLPRP | 0.356
26 | RRIRGRPPRLPRPRPRPRMWPRP | 0.223
27 | RRIRGRPPRLPRPRPRPRNMPRP | 0.0712
28 | RRIRGRPPRLPRPRPRPRQCPRP | 0.216
29 | RRIRGRPPRLPRPRPRPRQPPRP | 0.283
30 | RRIRGRPPRLPRPRPRPRRYPRP | 0.0823
31 | RRIRGRPPRLPRPRPRPRSCPRP | 0.759
32 | RRIRGRPPRLPRPRPRPRWDPRP | 0.696
33 | RRIRGRPPRLPRPRPRPRYAPRP | 0.399
34 | RRIRGRPPRLPRPRPRPRYHPRP | -0.0711
35 | RRIRGRPPRLPRPRPRPRYYPRP | -0.0701
36 | RRIRGRPPRLPRPRPRPSAGPRP | 1.09
37 | RRIRGRPPRLPRPRPRPSAIPRP | 1.3
38 | RRIRGRPPRLPRPRPRPSASPRP | 1.77
39 | RRIRGRPPRLPRPRPRPSCMPRP | 0.336
40 | RRIRGRPPRLPRPRPRPSDGPRP | -0.0367
41 | RRIRGRPPRLPRPRPRPSDIPRP | 0.399
42 | RRIRGRPPRLPRPRPRPSDTPRP | 0.116
43 | RRIRGRPPRLPRPRPRPSEQPRP | 0.301
44 | RRIRGRPPRLPRPRPRPSHHPRP | -0.286

Row | Sequence | shrunken log2 fold change
45 | RRIRGRPPRLPRPRPRPSIVPRP | 0.124
46 | RRIRGRPPRLPRPRPRPSKQPRP | -0.0392
47 | RRIRGRPPRLPRPRPRPSLEPRP | 0.827
48 | RRIRGRPPRLPRPRPRPSMKPRP | 0.354
49 | RRIRGRPPRLPRPRPRPSMVPRP | 0.512
50 | RRIRGRPPRLPRPRPRPSNFPRP | 0.0228
51 | RRIRGRPPRLPRPRPRPSNNPRP | 0.0994
52 | RRIRGRPPRLPRPRPRPSPQPRP | 0.826
53 | RRIRGRPPRLPRPRPRPSQCPRP | -0.165
54 | RRIRGRPPRLPRPRPRPSQEPRP | 0.172
55 | RRIRGRPPRLPRPRPRPSQMPRP | 0.0878
56 | RRIRGRPPRLPRPRPRPSQSPRP | 0.0755
57 | RRIRGRPPRLPRPRPRPSSAPRP | 0.592
58 | RRIRGRPPRLPRPRPRPSSNPRP | 0.369
59 | RRIRGRPPRLPRPRPRPSTRPRP | 0.114
60 | RRIRGRPPRLPRPRPRPSVCPRP | 0.159
61 | RRIRGRPPRLPRPRPRPSWIPRP | -0.0436
62 | RRIRGRPPRLPRPRPRPSYWPRP | 0.119
63 | RRIRGRPPRLPRPRPRPTAPPRP | 0.71
64 | RRIRGRPPRLPRPRPRPTAVPRP | 2.41
65 | RRIRGRPPRLPRPRPRPTDYPRP | -0.00915
66 | RRIRGRPPRLPRPRPRPTGCPRP | 0.562

Row | Sequence | shrunken log2 fold change
67 | RRIRGRPPRLPRPRPRPTGPPRP | 0.692
68 | RRIRGRPPRLPRPRPRPTHHPRP | 0.413
69 | RRIRGRPPRLPRPRPRPTIIPRP | -0.026
70 | RRIRGRPPRLPRPRPRPTKSPRP | 0.583
71 | RRIRGRPPRLPRPRPRPTKVPRP | 0.414
72 | RRIRGRPPRLPRPRPRPTMFPRP | 0.521
73 | RRIRGRPPRLPRPRPRPTMGPRP | 0.875
74 | RRIRGRPPRLPRPRPRPTNTPRP | 0.676
75 | RRIRGRPPRLPRPRPRPTPIPRP | 0.79
76 | RRIRGRPPRLPRPRPRPTPYPRP | 0.324
77 | RRIRGRPPRLPRPRPRPTQMPRP | 0.924
78 | RRIRGRPPRLPRPRPRPTQNPRP | 0.972
79 | RRIRGRPPRLPRPRPRPTQYPRP | 0.337
80 | RRIRGRPPRLPRPRPRPTSAPRP | 0.855
81 | RRIRGRPPRLPRPRPRPTTFPRP | 0.608
82 | RRIRGRPPRLPRPRPRPTTLPRP | 0.507
83 | RRIRGRPPRLPRPRPRPTTNPRP | 0.878
84 | RRIRGRPPRLPRPRPRPTVIPRP | 0.107
85 | RRIRGRPPRLPRPRPRPTVPPRP | 0.433
86 | RRIRGRPPRLPRPRPRPTWFPRP | 0.281
87 | RRIRGRPPRLPRPRPRPTWKPRP | 0.847
88 | RRIRGRPPRLPRPRPRPTYDPRP | 0.361

Row | Sequence | shrunken log2 fold change
89 | RRIRGRPPRLPRPRPRPTYLPRP | 0.132
90 | RRIRGRPPRLPRPRPRPVAVPRP | 0.912
91 | RRIRGRPPRLPRPRPRPVCRPRP | 0.802
92 | RRIRGRPPRLPRPRPRPVDNPRP | 0.408
93 | RRIRGRPPRLPRPRPRPVDSPRP | 0.0597
94 | RRIRGRPPRLPRPRPRPVDWPRP | 1.03
95 | RRIRGRPPRLPRPRPRPVETPRP | 0.689
96 | RRIRGRPPRLPRPRPRPVGFPRP | 0.984
97 | RRIRGRPPRLPRPRPRPVHYPRP | 0.109
98 | RRIRGRPPRLPRPRPRPVINPRP | 0.199
99 | RRIRGRPPRLPRPRPRPVKKPRP | 0.949
100 | RRIRGRPPRLPRPRPRPVLLPRP | 0.122
101 | RRIRGRPPRLPRPRPRPVLSPRP | 0.238
102 | RRIRGRPPRLPRPRPRPVMFPRP | 0.451
103 | RRIRGRPPRLPRPRPRPVNSPRP | 0.0202
104 | RRIRGRPPRLPRPRPRPVQRPRP | 0.739
105 | RRIRGRPPRLPRPRPRPVRIPRP | 0.536
106 | RRIRGRPPRLPRPRPRPVRLPRP | 0.525
107 | RRIRGRPPRLPRPRPRPVRWPRP | 0.965
108 | RRIRGRPPRLPRPRPRPVSMPRP | 0.401
109 | RRIRGRPPRLPRPRPRPVTEPRP | 0.706
